Where two headings read alike, the source gives them in different places.
How the values were obtained:
[1] = molecular target: GFP-PEP (natural target peptide of the PDZ-3 domain, C-terminus of CRIPT) (Aequorea victoria, UniProt P42212, F64L/H231L/S65T); details: PDZ fused to Gal4 activation domain, GFP-pep fused to Gal4 binding domain, SD lacking Trp, Leu, His, Adenine
Description: The two parts of the yeast two-hybrid system were prepared as follows. On one hand, either of the GFP derivatives carrying the C-terminal protein sequences (GFP-pep and GFP-Eg5) were cloned between the NcoI and BamHI sites the pGBKT7 plasmid (Clontech) to obtain a fusion with the DNA binding domain of Gal4. On the other hand, the modified PDZ domains were cloned between the EcoRI and XhoI sites of pGADT7 (Clontech) to obtain a fusion with the activation domain of Gal4. The resulting plasmids were introduced in the yeast strain J569a using the method described by Agatep et al, 1998. Yeast cells were plated in SD lacking Trp and Leu, and then stricken in selective SD medium lacking Trp, Leu, His, and Adenine. Cells only grow in this selective medium if there is an interaction between the expression products of the two plasmids.
Yeast cells transfected with only one of the two plasmids were also tested as controls.

[2] = molecular target: T1, Biotin-GG-KQTSV (Homo sapiens, UniProt Q9P021); assay: Micro-calorimetric assay; assay type: binding
T1 construct: with its natural target (Biotin-GG-KQTSV)
Excerpt: Physical methods for measuring the dissociation (or affinity) constant include iso-thermal calorimetry, surface plasmon resonance, analytical ultra-centrifagation (where appropriate), and so forth. Iso-thermal calorimetry is the preferred method. Iso-thermal calorimetry measures the heat released when a binding polypeptide binds to its target under constant-temperature, constant-pressure conditions. From these measurements, the thermodynamic parameters of this binding can be routinely determined by the methods of physical chemistry. For example, it is routinely possible to obtain the binding affinity (or dissociation constant), the stoichiometry of binding (n), the heat (or enthalpy) of binding (H), the heat capacity of binding, the entropy of binding, and so forth. Current micro-iso-thermal machines are readily available commercially. Such machines are fully automatic, directly returning the above thermodynamic results. See, e.g., MicoCal, LLC, Northampton. Mass.; www.microcalorimetry.com.
FIG. 14 illustrates the routine use of micro-calorimetry to determine the binding parameters of the wild-type PDZ (PDZ3 of PSD095) domain with its natural target (Biotin-GG-KQTSV). This figure present the output of an automated micro-calorimetry experiment returning the stoichiometry constant (n), the affinity constant (K), the enthalpy of binding (H), and the entropy of binding (S).

[3] = molecular target: GFP (Aequorea victoria, UniProt P42212, F64L/H231L/S65T); details: 6XHis-PDZ on Ni-NTA agarose, E. coli extract, anti-GFP Western blot
Excerpt: (§1) To carry out the affinity chromatography assay, bacterially-expressed PDZ domains and EGFP derivatives were produced and fused to the different target peptides. The original and modified PDZ domains were expressed in E. coli XL1-Blue as fusions with 6XHis. The EGFP-peptides fusions were expressed in E. coli BL21 as described in Sambrook et al, 1989, Molecular Cloning: A Laboratory Manual, 2nd Ed., Vol 3. The bacterially expressed PDZ domains were then bound to nickel resin (Ni-NTA agarose, Quiagen) as described by the manufacturer. The resin-bound PDZ domains were then incubated with E.coli extracts made from bacteria expressing each of the target peptide-GFP fusions and washed four times with 50 mM NaH2PO4, 300 mM NaCl; 20 mM Imidazole; 0,1% of TritonX-100 to remove any unbound proteins. The bound proteins were eluted using 50 mM NaH2PO4, 300 mM NaCl; 200 mM Imidazole and analyzed by Western blot using antibodies against GFP to determine the presence of EGFP fused to the target peptide.

[4] = molecular target: GFP fused to the Eg5 C-terminal peptide (Mus musculus, UniProt Q6P9P6); details: 6XHis-PDZ on Ni-NTA agarose, E. coli extract, anti-GFP Western blot
Excerpt: as §1

[5] = molecular target: GFP fused to the C-terminal peptide recognized by the original PDZ (pep, CRIPT) (Aequorea victoria, UniProt P42212, F64L/H231L/S65T); details: 6XHis-PDZ on Ni-NTA agarose, E. coli extract, anti-GFP Western blot
Excerpt: as §1

B1: PDZ-3: third PDZ domain of the mouse PSD-95 protein, amino acid 302 to 402; unmodified redesign precursor (protein, UniProt Q62108 302-402, looked up, fragment)
chain: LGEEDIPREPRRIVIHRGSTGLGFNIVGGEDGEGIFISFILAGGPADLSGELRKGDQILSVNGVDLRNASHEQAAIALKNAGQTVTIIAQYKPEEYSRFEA
modifications: PDZ 3
notes: third PDZ domain of the mouse PSD-95 protein, amino acid 302 to 402; unmodified redesign precursor
In the case of B1, the “viability of transfected yeast cells in selective medium (interaction)” value [1] is reported as “specifically interacts with its target peptide”, the “viability of transfected yeast cells in selective medium (interaction)” value ([1]; listed as PGADT7-PDZ) is reported as “allow viability” and the Kd ([2]; corresponding to the measured affinity constant, read-out: dissociation constant) is reported as 39 µM. For the same molecule, the “affinity constant (K)” value ([2]; micro-calorimetry, natural target Biotin-GG-KQTSV) was 25700 M⁻¹, the “binding of GFP alone to immobilized PDZ domain” value [3] was “not able to bind” and the “binding of GFP-Eg5 fusion to immobilized PDZ domain” value [4] was “not able to bind”. The “binding of GFP-pep fusion to immobilized PDZ domain” value [5] was “binds only to its naturally recognized target peptide” and the “binding of GFP-pep fusion to immobilized PDZ domain” value ([5]; listed as original PDZ) was “very efficiently bind”.

From patent publication US20030059827A1, “Engineered protein binding domains and methods and systems for their design and use” (priority 2001, published 2003)
